In PMC7229152 one finds Filaments moving (%) in in vitro motility data, which are given here for two substances.

Assay [1] concerns the target Act88F^M305L Drosophila indirect flight muscle (IFM) actin, filamentous (F-Act88F^M305L) (Drosophila melanogaster).
The target in assay [2] is Act88F^WT Drosophila indirect flight muscle (IFM) actin, filamentous (F-Act88F^WT) (Drosophila melanogaster) (UniProt P83967).

Sequence of porcine cardiac tropomyosin (Tpm) (P42639 whole entry): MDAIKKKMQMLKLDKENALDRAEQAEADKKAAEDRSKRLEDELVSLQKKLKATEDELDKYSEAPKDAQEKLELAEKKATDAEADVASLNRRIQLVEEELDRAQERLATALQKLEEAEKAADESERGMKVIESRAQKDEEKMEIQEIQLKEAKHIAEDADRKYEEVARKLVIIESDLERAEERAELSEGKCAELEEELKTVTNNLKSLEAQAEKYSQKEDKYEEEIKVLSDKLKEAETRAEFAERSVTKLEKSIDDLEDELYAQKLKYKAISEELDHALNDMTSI
Sequence of rabbit psoas myosin (Q28641 whole entry, looked up): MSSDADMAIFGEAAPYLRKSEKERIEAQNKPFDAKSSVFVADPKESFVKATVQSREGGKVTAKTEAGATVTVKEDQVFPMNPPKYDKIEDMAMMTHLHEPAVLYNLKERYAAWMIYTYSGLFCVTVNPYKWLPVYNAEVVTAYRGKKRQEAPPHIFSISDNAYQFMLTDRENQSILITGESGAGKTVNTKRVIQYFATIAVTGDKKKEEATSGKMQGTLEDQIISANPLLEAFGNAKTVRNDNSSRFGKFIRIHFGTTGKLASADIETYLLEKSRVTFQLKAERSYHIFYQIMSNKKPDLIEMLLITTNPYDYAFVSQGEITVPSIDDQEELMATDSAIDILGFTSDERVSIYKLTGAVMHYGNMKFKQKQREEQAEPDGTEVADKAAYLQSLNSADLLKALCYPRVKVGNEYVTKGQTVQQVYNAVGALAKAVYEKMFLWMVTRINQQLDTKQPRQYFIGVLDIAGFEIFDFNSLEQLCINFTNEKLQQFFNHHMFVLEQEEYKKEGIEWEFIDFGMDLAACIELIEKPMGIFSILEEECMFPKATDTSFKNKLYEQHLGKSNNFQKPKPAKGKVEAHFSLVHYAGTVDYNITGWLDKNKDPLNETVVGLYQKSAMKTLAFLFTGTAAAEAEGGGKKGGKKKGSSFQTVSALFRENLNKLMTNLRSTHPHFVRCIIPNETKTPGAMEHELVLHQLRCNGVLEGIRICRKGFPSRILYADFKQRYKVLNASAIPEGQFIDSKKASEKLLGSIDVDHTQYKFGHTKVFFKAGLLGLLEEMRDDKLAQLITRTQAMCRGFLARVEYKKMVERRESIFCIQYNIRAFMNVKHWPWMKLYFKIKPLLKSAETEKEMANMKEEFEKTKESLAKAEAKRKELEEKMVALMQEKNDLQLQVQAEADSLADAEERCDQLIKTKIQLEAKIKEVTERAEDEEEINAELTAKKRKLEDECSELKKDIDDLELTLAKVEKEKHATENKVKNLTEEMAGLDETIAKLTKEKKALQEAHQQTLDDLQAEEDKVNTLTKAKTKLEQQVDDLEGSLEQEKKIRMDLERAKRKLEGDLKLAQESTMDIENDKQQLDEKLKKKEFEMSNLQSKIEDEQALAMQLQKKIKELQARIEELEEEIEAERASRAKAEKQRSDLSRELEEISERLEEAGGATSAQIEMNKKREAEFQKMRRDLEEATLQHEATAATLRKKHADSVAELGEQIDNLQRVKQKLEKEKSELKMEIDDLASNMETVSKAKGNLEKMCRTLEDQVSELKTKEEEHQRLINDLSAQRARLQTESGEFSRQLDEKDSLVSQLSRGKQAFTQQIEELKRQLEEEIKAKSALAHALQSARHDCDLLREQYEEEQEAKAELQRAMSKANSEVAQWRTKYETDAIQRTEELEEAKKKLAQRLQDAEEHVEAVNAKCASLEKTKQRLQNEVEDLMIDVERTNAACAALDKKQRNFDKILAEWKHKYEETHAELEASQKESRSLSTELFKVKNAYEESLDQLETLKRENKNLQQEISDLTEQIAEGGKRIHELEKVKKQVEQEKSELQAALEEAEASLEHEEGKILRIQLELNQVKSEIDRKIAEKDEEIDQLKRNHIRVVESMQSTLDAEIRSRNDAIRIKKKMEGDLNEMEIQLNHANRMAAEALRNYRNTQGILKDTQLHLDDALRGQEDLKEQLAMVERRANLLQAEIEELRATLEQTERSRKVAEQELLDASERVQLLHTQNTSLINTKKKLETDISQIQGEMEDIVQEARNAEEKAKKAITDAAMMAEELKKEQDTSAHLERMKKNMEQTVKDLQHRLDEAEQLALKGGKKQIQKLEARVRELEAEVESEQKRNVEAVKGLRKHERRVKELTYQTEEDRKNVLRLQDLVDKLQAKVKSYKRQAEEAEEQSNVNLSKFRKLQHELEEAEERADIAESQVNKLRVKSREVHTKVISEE

Substance “porcine cardiac tropomyosin (Tpm) (from UniProt P42639 1-284) (natural protein)” registered a Filaments moving (%) in in vitro motility at 30 °C with 300 nM Tpm, rabbit psoas myosin 12.5 to 100 µg ml^-1 (21.17 to 71.16 %) in assay [1] of 71.2%. For the same substance, the Filaments moving (%) in in vitro motility at 30 °C with 300 nM Tpm, rabbit psoas myosin 12.5 to 100 µg ml^-1 (14.96 to 62.87 %) in assay [2] turned out to be 62.9%.

Take “rabbit psoas myosin (from UniProt Q28641 1-1938) (complex)”: the Filaments moving (%) in in vitro motility at 30 °C without Tpm, rabbit psoas myosin 12.5 to 100 µg ml^-1 (32.57 to 68.00 %) in assay [1] came to 68%. The substance also displayed a Filaments moving (%) in in vitro motility at 30 °C without Tpm, rabbit psoas myosin 12.5 to 100 µg ml^-1 (31.02 to 68.11 %) in assay [2] of 68.1%.
